This is an account of results in publication PMC6353796, “Thermostable Branched-Chain Amino Acid Transaminases From the Archaea Geoglobus acetivorans and Archaeoglobus fulgidus: Biochemical and Structural Characterization” (Frontiers in Bioengineering and Biotechnology, 2019).

“And” between values parts separate entries of the source, which are not always exact repeats. Equal entries are not always repeated.

The target of test [1] is GEO1900, branched-chain amino acid transaminase (BCAT) from Geoglobus acetivorans (Geoglobus acetivorans). The experiment in a line: SEC; GEO1900 on Superdex 200 in 30 mM Tris-HCl, pH 8.0, 300 mM NaCl; native molecular weight by gel filtration.
Test [2] shares this target. The test is described as follows: crystal structure; GEO1900 holo form and AKG complex, space group P3(2)21, three subunits per asymmetric unit; hexamer built with symmetry mates.

Regarding “GEO1900, branched-chain amino acid transaminase (BCAT) from Geoglobus acetivorans (enzyme)”, the stoichiometry N is 2 and 4 in test [1]; 6 in test [2].
